Data as given in article PMC5025769, “A highly efficient sorbitol dehydrogenase from Gluconobacter oxydans G624 and improvement of its stability through immobilization” (Scientific Reports, 2016).

Tests used:
[1] = biological target: T1, GoSLDH (sorbitol dehydrogenase) (Gluconobacter oxydans, UniProt Q9KWR5); experiment: substrate specificity assay at […]; format: biochemical
T1 construct: purified 6x His-tagged recombinant GoSLDH
T1 sequence (Q9KWR5 1-485): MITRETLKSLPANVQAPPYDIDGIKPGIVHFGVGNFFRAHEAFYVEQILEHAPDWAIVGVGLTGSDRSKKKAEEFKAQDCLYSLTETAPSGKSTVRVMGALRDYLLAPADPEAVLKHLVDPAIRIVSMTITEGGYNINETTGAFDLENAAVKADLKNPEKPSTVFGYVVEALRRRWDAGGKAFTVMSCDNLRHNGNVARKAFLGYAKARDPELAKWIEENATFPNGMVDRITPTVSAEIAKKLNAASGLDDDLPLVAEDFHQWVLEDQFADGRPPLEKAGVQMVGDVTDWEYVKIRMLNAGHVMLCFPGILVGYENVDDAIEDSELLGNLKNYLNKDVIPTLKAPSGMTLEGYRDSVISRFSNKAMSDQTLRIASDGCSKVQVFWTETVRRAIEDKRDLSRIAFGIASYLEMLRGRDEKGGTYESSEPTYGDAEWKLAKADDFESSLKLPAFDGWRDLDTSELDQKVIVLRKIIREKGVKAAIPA

[2] = biological target: GoSLDH (sorbitol dehydrogenase) (Gluconobacter oxydans, UniProt Q9KWR5, K294Q); experiment: isothermal titration calorimetry, […] °C; format: binding
[3] = biological target: T2, PfMDH (mannitol dehydrogenase) (Pseudomonas fluorescens, UniProt O08355, K295Q); experiment: isothermal titration calorimetry, […] °C; format: binding
T2 construct: gene mtlD

purified protein [4] = substrate: OC[C@@H](O)[C@@H](O)[C@H](O)[C@@H](O)CO; experiment: purified protein; format: biochemical, Gluconobacter oxydans; conditions: NADP^+
purified protein [5] = substrate: NC(=O)c1ccc[n+]([C@@H]2O[C@H](COP(=O)(O)OP(=O)(O)OC[C@H]3O[C@@H](n4cnc5c(N)ncnc54)[C@H](OP(=O)(O)O)[C@@H]3O)[C@@H](O)[C@H]2O)c1; experiment: purified protein; conditions: varied: cofactor
[6] = biological target: the molecule itself; experiment: SEC; Bio-Sil SEC-250 column (300 x 7.8 mm) on HPLC; mobile phase pH 6.8, 50 mM Na2HPO4, 50 mM NaH2PO4, 50 mM NaCl, 10 mM NaN3; 1.0 mL/min; quaternary structure from comparison of molecular weights by HPLC and SDS-PAGE

T2 sequence (O08355 entry or part of it K295Q): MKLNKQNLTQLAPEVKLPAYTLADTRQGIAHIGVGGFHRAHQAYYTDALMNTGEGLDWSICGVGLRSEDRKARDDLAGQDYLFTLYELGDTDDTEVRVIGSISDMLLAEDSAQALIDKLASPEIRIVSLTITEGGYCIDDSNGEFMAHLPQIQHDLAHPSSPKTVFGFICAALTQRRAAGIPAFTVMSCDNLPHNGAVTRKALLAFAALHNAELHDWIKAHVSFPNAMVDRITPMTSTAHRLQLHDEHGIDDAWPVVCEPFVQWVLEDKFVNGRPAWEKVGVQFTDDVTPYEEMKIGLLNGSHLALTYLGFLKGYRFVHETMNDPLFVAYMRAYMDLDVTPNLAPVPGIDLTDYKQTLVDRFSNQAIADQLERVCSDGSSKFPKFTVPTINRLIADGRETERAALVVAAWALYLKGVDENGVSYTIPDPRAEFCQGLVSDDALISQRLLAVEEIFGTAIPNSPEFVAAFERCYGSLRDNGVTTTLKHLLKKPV

## OC[C@@H](O)[C@@H](O)[C@H](O)[C@H](O)CO [mannitol]
[1]
  substrate specificity assay at 200 mM: GoSLDH is highly specific towards D-sorbitol, mannitol, and D-arabinitol (Table S2)

## OC[C@@H](O)[C@@H](O)[C@H](O)[C@@H](O)CO [D-sorbitol]
[2]
  Kd: 96 µM
[3]
  Kd: 278 µM

B1: sorbitol dehydrogenase (GoSLDH) from Gluconobacter oxydans G624 (enzyme, UniProt Q9KWR5 1-485, looked up)
chain: MITRETLKSLPANVQAPPYDIDGIKPGIVHFGVGNFFRAHEAFYVEQILEHAPDWAIVGVGLTGSDRSKKKAEEFKAQDCLYSLTETAPSGKSTVRVMGALRDYLLAPADPEAVLKHLVDPAIRIVSMTITEGGYNINETTGAFDLENAAVKADLKNPEKPSTVFGYVVEALRRRWDAGGKAFTVMSCDNLRHNGNVARKAFLGYAKARDPELAKWIEENATFPNGMVDRITPTVSAEIAKKLNAASGLDDDLPLVAEDFHQWVLEDQFADGRPPLEKAGVQMVGDVTDWEYVKIRMLNAGHVMLCFPGILVGYENVDDAIEDSELLGNLKNYLNKDVIPTLKAPSGMTLEGYRDSVISRFSNKAMSDQTLRIASDGCSKVQVFWTETVRRAIEDKRDLSRIAFGIASYLEMLRGRDEKGGTYESSEPTYGDAEWKLAKADDFESSLKLPAFDGWRDLDTSELDQKVIVLRKIIREKGVKAAIPA
notes: sorbitol dehydrogenase (SLDH) of Gluconobacter oxydans G624; complete 1455-bp codon-optimized gene; molecular mass 53.64 kDa by SDS-PAGE; The abstract speaks of the complete 1455-bp gene, the methods of 1.458 kb; also called recombinant GoSLDH; polyol-specific long-chain dehydrogenase from G. oxydans G624; source: E. coli BL21 (DE3)-CodonPlus RIL, pET-28(a), purified (Ni-NTA Superflow column)
Purified protein [4]
  Km: 38.9 mM
  kcat: 3820 s⁻¹
  kcat/Km: 98100 M⁻¹ s⁻¹
Purified protein [5]
  Km: 88.2 µM
[6]
  stoichiometry N: 2
